Experimental data taken from publication PMC4256255 (PLoS Pathogens, 2014).

Molecular target: the molecule itself
Assay: SEC-MALS

B1: D8 Δ262 construct (amino acids 1–261, lacking Cys 262) (domain or fragment)
chain: MPQQLSPINIETKKAISNARLKPLDIHYNESKPTTIQNTGKLVRINFKGGYISGGFLPNEYVLSSLHIYWGKEDDYGSNHLIDVYKYSGEINLVHWNKKKYSSYEEAKKHDDGLIIISIFLQVLDHKNVYFQKIVNQLDSIRSANTSAPFDSVFYLDNLLPSKLDYFTYLGTTINHSADAVWIIFPTPINIHSDQLSKFRTLLSSSNHDGKPHYITENYRNPYKLNDDTQVYYSGEIIRAATTSPARENYFMRWLSDLRET
stoichiometry N: 6
